Biological target: human CD28 (human, UniProt P10747 19-220)
Assay: cell-based or functional assay

B1: 1h-76 (other)
VL: DIQMTQSPSSLSASVGDRVTITCRASQYIGTRLVWYQQKPGKAPKLLIYQSSLLQSGVPSRFRGSGSGTDFTLTISSLQPEDSATYYCQQTALVPYTFGQGTKVEIKR
- Luciferase assay (EC50): 1800 nM
